Measured values published in the DeepSol protein solubility set.

test: soluble on expression in E. coli; label from the status in PepcDB or PDB records

Row | Sequence | soluble on expression in E. coli
1 | MNKRNTQQRRHSIISILNEQGEVSVDELSLRFETSEVTIRKDLAELEKTGLLLRRYGGAVAIPDEVTQQFSAKIAPNKLSIAKAAAQLIKDHNRIIIDSGTTTSGLIAELNQKRGLVVMTNALHLANAIHELENEPTLLMTGGTWDPHSESFQGQVAEQVLRSYNFDQLFIGADGIDLARGTTTFNELTGLSKVMAEVSREVIVMVDSDKIGKRIPNLELPWSKISVLVTDARIEESALKQITEQGVKVILAPYSPLEHHHHHH | soluble
2 | MGSDKIHHHHHHMLTHYRDYESFKQVAIPLLERRPDVHQLPLGILERGDVPILMAIAEEGDRTIVVLQTIEEQAILAGDVFTYEGIRKLSRILNCPGYVGEQAIIEPLLASHSPFQIKMDQGIYTLTTVIPPVTLDYEFRLIEERFAPQAVAFGWSFIQETGALPATERSRLKNEQTIRKHIEAETLFGLFDGEQLLAMASSSRPTASGVTISYVFTPPKWRKQGIASYLVACLSEHLLQQYPMVSLYTDWSNKTSNKIYQAVGFELAGRSMQITKRPKYQ | not soluble
3 | MALPPGLMVVEEIISSEEEKMLLESVDWTEDTDNQNSQKSLKHRRVKHFGYEFHYENNNVDKDKPLSGGLPDICESFLEKWLRKGYIKHKPDQMTINQYEPGQGIPAHIDTHSAFEDEIVSLSLGSEIVMDFKHPDGIAVPVMLPRRSLLVMTGESRYLWTHGITCRKFDTVQASESLKSGIITSDVGDLTLSKRGLRTSFTFRKVRQTPCNCSYPLVCDSQRKLEHHHHHH | soluble
4 | SASRGYLHHLLTAEGAWEEFVSKAKLPRDRAVALHKALRDLTALLAIAERGRSRKGWKGKEKFVKAFPCLKADLEEHISQLYALADHAEELHRGCTVSNMVADSFSVASDILNLFGLFLAPESAEGSLVLSAAGLGLGVAATVTNVATSIMKETSRVLDGVEAGHHGSTAMDILEEAGTSVARIASEIPQATRDITRDLEALEQHMNALSLVRANPRLEEDARALINAGSIPAQRAKQVRASLKGTPLAMSKEDRIRSATTTGVTLLRDVGSLVNESKQLYEGSASESAAALRKLAQELEEKLGELMKFYETI | not soluble
5 | MLESNENRIQIMSTIAKIYRAMSRELNRRLGELNLSYLDFLVLRATSDGPKTMAYLANRYFVTQSAITASVDKLEEMGLVVRVRDREDARKILIEITEKGLETFNKGIEIYKKLANEVTGDLSEDEVILVLDKISKILKRIEEISQ | soluble
6 | MSLTDDLKVCNQTGVGEAINQIYKDDGRRCEGYESRDKKCLCISDNNTSLYAILSGHNGVTVAENALQEMAAELLLGQLNVCNTDEAVKELIRQSFMSVEKGYFDSINPHVATKTAIQLHLSADGMNQYEISQQFENVLQKLDSLNNALSVGSSAVLALIHRSHLYLGNIGNCRALLCKTDEHDTLTVTQLSVDHNLLNAEEAARLFRLGLMAQNFEGVPLYSTRCIGNYLGKAGYKDCNFLSSATAEPVIFEPEIVGGIQITPACRFLVLMSSGLCRALHEIFPGDASTGNRELVRMISEEFQNQSTLGGVAQSVVHRIVQAHHDTYMQLVEEHRSVTFNSRDDVTLLIRNFNYAEGHHHHHH | not soluble
7 | MSLTIKVFSPKYPTELEEFYAERIADNPLGFIQRLDLLPSISGFVQKLREHGGEFFEMREGNKLIGICGLNPINQTEAELCKFHINSAYQSQGLGQKLYESVEKYAFIKGYTKISLHVSKSQIKACNLYQKLGFVHIKEEDCVVELGEETLIFPTLFMEKILSEGHHHHHH | soluble
8 | DHLHVIGDIYDRGPAPDKIMDRLMSYHSLDIQLGNHDMIWLAAYSGSLACLANVVRICARYGNLDLLEERYAIDLTALKKFSLETYKENPAFAPKKNPYRALTEAEKQVAMRVQQAIAIIQEKLEGQIIGRRPDFNLAHRLRLDKIQGETITFDECRYTLINSCFQTVSEEQPYQLTREEKQIIDDLLTQFQSSPRLTKHMRFLMEKASLYLVYNQNLLIHGCLPLNADGTFQAYTFKGHSYSGKALVDFFQEMLEEAYAQPASTDDYATDCLWYLWCGEGSSLFGKRAMKTFERYFLAEKETHYEEKNPYYSLRDTVEVCERILDEFEVTGENRHIINGHTPVKRTKGESPIKANGTLLVIDGGFSKSYQTITGIAGYTLLYNS | not soluble
9 | MSLNRFFNRELSWLAFNTRVLNEAKDESLPLLERLKFLAIYDTNLDEFYMIRVAGLKQLYEHKIASKGIDGASPEEQLEKIKHYLAHEIEERELEFQKIQALLFKKGLCITPYNELNLEQKAKAKTYFKEQLYALVLPFKLDSSHTFPPLANLTFALFARIKDKETQIISYALIKLPSFIFRFVELEKGLFVLAEEIVEAHLEELFLEHEILDCMAFRVTCDADIAITEDEAHDYADLMSKSLRKRNQGEIVRLQTQKGSQELLKTLLASLRSFQTHSYKKHKLTGMHIYKSAIMLNLGDLWELVNHSDFKALKSPNFTPKIHPHFNENDLFKSIEKQDLLLFHPYESFEPVIDLIEQAASDPATLSIKMTLYRVGKHSPIVKALIEAASKIQVSVLVELKARFDEESNLHWAKALERAGALVVYGVFKLKVHAKMLLITKKTDNQLRHFTHLSTGNYNPLSAKVYTDVSFFSAKNEIANDIIKLFHSLLTSSATNSALETLFMAPKQIKPKIIELIQNEMNHQQEGYIILKANALVDSEIIEWLYQASQKGVKIDLIIRGICCLKPQVKGLSENIRVYSIVGKYLEHARIYYFKHENIYFSSADLMPRNLERRVELLIPATNPKIAHKLLHILEIQLKDTLKRYELNSKGRYIKVSNPNDPLNSQDYFEKQALKTFEGHHHHHH | soluble
10 | MGSDKIHHHHHHMAFQNIQRFQNQDLIRVGNDDNYLLLAPHYGGRLVRWVRHGEEILYWPEAADWSRPAKIRGGNPLLFPFIGRHFADGEAGRWRDANGTTHTLPQHGFARDLPFTVVAADDDKIVMALESSDSTRAGYPYAFRFEASYVMLEDGVEVALRSENTGSDRLPYYAGHHFYFSLPAAHRPDTRLLLPEAVRLRQEPDGRLTHAIQGEPAYALDDDRLQDTFHALRGGGSVTLAMPGRTLAIDLDVPGCVAWHAVTTWTESKDADFYCVEPWLGLPDAIHHGHGLRWLEPGEQETAVCRVRVVA | not soluble
11 | MGQDRGFGFPTQRLCSLSSLALSHLGKQDLNLVSKTCGDTTDMFSTRGSYQVSTQVSQSYFDGYCGWVHGSSHLQQQFLPPQNQCMKQVPLQVDGVISKAEEQCSQKRFLVFDQSGDQTTLLLASDIRKSFETLKQHACPDMKEELQRSNKDLFVCHGMQGNSEPDLKEDSEELNALLYSEDESGYCSEEDEVTSADHSPSIVVSGREDQKTFLGSYGQPLNAKKRKILETSNESMRDAESSCGSCDNTRISFLKRSKLSSNKIGEEKIFETVSLLRSVVPGEELVDPILVIDRAIDYLKSLKMEAKNREA | soluble
12 | MAHHHHHHMNVAKREFIRGMMAHYRASLPPPEHSVVIHELQKRVLDIGMLAVNKAHVELFGSHVSGFCTPHSDADISLTYRNFSPWLQGMERVDEQNNKRMTRFGKEASAMGMEDVRYIRARIPVVQFTDGVTGIHCDVSIGNIGGVENSKILCAIRQVFPDFYGAYIHLVKAWGKAREVIAPERSTFNSFTVTTMALMVLQELGLLPVFSKPTGEFGELTVADAEMLLQEFKLPPIYDSLHDDDEKLGEAVFFCLQRFAEYYAKYDFSAGTVSLIHPRRHRTVYERVVRRHLELLGSRKRLEWEKHIAEHKEDGPLDENDFSASMQNETTQRPSNSPYVVEDFVNYVNCGRRVQASRVRHIQQEFNRLREMLIDKESELKFDEVFRESDTVPRFQGFEGVGTRDHRVKTFRPQ | not soluble
13 | MSLRRARIAFASIDYTGDAWRHIPSVIGEMFAGIGEHAWRRDAVLEIVGVEDEEAEGYLRRVAERRPVDGLLLRVANDIRGEHLDILERAGMPYVLIKRHIPGRRMNCVISDDVTGARMATSHLLELGHRRIGFVCGKPHLTLNRERLAGYREALEEHGVGFDEGLVRQEEHFTTEMGYRAVRSLLEAPSRPSAVFVASDTMAIGGYEAVWDLGLRIPDDVSIVGYDDIQAASALQPPLTTVRTSYYDFGRLAAQLLLDLIEGREVAPQRRVIHPTLVVRGSTREGHHHHHH | soluble
14 | MSLSRRPAYARLLDRAVRILAVRDHSEQELRRKLAAPIMGKNGPEEIDATAEDYERVIAWCHEHGYLDDSRFVARFIASRSRKGYGPARIRQELNQKGISREATEKAMRECDIDWCALARDQATRKYGEPLPTVFSEKVKIQRFLLYRGYLMEDIQDIWRNFADEGHHHHHH | soluble
15 | MSLGNPHMPLLLALSKGFVEPVYRAAFLASAASSGVLAALAVRPCDLESLAERLDIDDEDLPRLKEWLDMGIRLGDLGKREGCYKLRSLPAKALAQPGNDAIAAALEEVLRFHVPALLNGPRMLREGRRFSLDDQDGLVIARSTRVIQPLVEEAIARTLDRNAPVRLLEVGCGSGTYVRYAAELNPRLSALAVDLQQDVADSAAANMAEWGLTDRVETRQADLRTLDAQPQFDLVTLHNNIYYFPEAERVEALRRAHDLLAPGGRLLLTTSCKGGNVGLEALNLWFTYADFGGPLPQADALADQLRQAGFDDVEATRIVPGEQFHAFTGTSKRVAHAEGHHHHHH | not soluble
16 | MSLDIAYFTKTLEGLPLEKAAEITAGLGFDCADLLIRDGHAVSPDRPEGIANAVKFFAAAGVRTSMATIDSARPDDAASRLLSCCGEAGIGQIRLGFWRYDPSRRWRVQVDEARRDLDGFERLADRFGIKLTIQLHGGTLHSSGALAVQLLAGRDPIRLGAYPDPANQIIREGSEDWRLTLDILDPWFCCMGVKNSGWFPGAYGSHGQRAWHSDWYGLDEGMVPWNEIVPHLVATGFTGVLSMHSQYRVSREQALDKVRADLAHFRRLVAAAKEGHHHHHH | not soluble
17 | MEKRGKVWLAVSGLVATKDGRWLFVKKKYSGLKGKWSLPAGFVNEGETVDEAVKREVLEETGIVAHVKGIIGVRSGVIRNEISDNMIIFLLEPEGENIIIQEKELSEVAFLHPDKIVDDPNTSVLIKYLLEGRSELHLEVDKTLNPGEPFGYTAYHVFTARAKERGKE | not soluble
18 | VPMHPFVKALQEHFTAHQNPEKAEPMARYMKNHFLFLGIQTPERRQLLKDIIQIHTLPDQKDFQIIIRELWDLPEREFQAAALDIMQKYKKHINETHIPFLEELIVTKSWWDSVDSIVPTFLGDIFLKHPELISAYIPKWIASDNIWLQRAAILFQLKYKQKMDEELLFWIIGQLHSSKEFFIQKAIGWVLREYAKTNPDVVWEYVQNNELAPLSKREAIKHIKQNYGINNEKIGETLS | soluble
19 | PVPPLPEHGGKVRFGLIPEEFFQFLYPKTGVTGPYVLGTGLILYLLSKEIYVITPETFSAISTIGFLVYIVKKYGASVGEFADKLNEQKIAQLEEVKQASIKQIQDAIDMEKSQQALVQKRHYLFDVQRNNIAMALEVTYRERLHRVYREVKNRLDYHISVQNMMRQKEQEHMINWVEKRVVQSISAQQEKETIAKCIADLKLLSKKAQAQPVM | soluble
20 | MQWVKQLNVVFCTMLFSFSSYANLSDFKVATWNLQGSSAVNESKWNINVRQLLSGEQGADILMVQEAGSLPSSAVRTSRVIQHGGTPIEEYTWNLGTRSRPNMVYIYYSRLDVGANRVNLAIVSRRQADEAFIVHSDSSVLQSRPAVGIRIGTDVFFTVHALATGGSDAVSLIRNIFTTFTSSPSSPERRGYSWMVVGDFNRAPVNLEAALRQEPAVSENTIIIAPTEPTHRSGNILDYAILHDAHLPRREQARERIGASLMLNQLRSQITSDHFPVSFVHDR | soluble
21 | MQQYAQRDKKHEYWFAVPQERTDHLYAFFIQWSPEIYAEDTGEYTREPGFIVVKKIEESETIEDSSNQAAAREWEITTREDINSKQVATVKADLESESFRPNLSDPSELLLPDQIEKLTKHLPPRTIGYPWTLVYGTGKHGTSLKTLYRTMTGLDTPVLMVIKDSDGQVFGALASEPLKVSDGFYGTGETFVFTFCPEFEVFKWTGDDMFFIKGDMDSLAFGGGGGEFALWLDGDLYHGRSHSCKTFGNRTLSKKEDFFIQDIEIWAFELEHHHHHH | not soluble
